From patent US20260116983A1

What was measured:
[1] = target: human uPAR displayed on the surface of MDA-MB-231 cells (human) (UniProt Q03405); assay: cell-based or functional assay
[2] = target: human uPAR displayed on the surface of MDA-MB-231 cells (human) (UniProt Q03405); assay: flow cytometry (FACS) on MDA-MB-231 cells; isotype control

human uPAR displayed on the surface of MDA-MB-231 cells (human), sequence (Q03405 23-305): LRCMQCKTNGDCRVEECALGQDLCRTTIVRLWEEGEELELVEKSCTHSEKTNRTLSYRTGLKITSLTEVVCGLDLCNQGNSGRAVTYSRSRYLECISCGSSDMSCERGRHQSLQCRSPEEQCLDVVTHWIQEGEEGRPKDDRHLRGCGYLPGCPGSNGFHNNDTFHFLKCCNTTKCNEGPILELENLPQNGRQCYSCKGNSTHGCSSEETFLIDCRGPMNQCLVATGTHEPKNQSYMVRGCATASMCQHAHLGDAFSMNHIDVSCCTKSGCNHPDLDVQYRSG

ADCC NK-92 Max % [1]: 0.468%
ADCC PBMCs Max % [1]: 4.8%
Cellular recognition Max % [2]: 155%
Substance: human IgG1 control (antibody)
